Measured values: patent CN115466329A (GUANGDONG FAPON PHARMACEUTICAL CO LTD, dated 2022)

Experiments:
[1] = molecular target: CD28 (ACRO) coated on the ELISA plate (UniProt P10747 19-152); assay: ELISA, antigen coated at 1μg/ml
[2] = molecular target: T1, ICOS (ACRO) coated on the ELISA plate (UniProt Q9Y6W8 21-140); assay: ELISA, antigen coated at 1μg/ml
T1 sequence (looked up): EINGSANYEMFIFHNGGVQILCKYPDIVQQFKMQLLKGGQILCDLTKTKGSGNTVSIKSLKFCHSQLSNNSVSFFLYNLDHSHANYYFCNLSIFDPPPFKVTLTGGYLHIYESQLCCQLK

[3] = molecular target: T2, CTLA-4 (ACRO) coated on the ELISA plate (UniProt P16410 37-162, limits assumed); assay: ELISA, antigen coated at 1μg/ml
T2 sequence (looked up): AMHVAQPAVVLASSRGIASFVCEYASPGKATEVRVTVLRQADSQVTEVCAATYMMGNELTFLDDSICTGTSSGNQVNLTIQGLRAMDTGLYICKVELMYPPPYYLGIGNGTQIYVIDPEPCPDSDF

[4] = molecular target: T3, 小鼠PD1 expressed on CHO cells (CHO-mousePD1) (mouse, UniProt Q02242 25-288); assay: flow cytometry on CHO-mousePD1 cells
T3 construct: whole, on cells; also called CHO-mPD1
T3 sequence (looked up): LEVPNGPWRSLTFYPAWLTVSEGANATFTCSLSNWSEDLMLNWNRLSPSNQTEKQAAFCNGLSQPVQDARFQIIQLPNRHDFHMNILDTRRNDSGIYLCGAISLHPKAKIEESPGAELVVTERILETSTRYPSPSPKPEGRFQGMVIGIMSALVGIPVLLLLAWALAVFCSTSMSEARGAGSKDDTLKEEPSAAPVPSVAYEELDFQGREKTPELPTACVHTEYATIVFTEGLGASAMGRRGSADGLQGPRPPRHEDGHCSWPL

PD-1-his(ACRO)重组蛋白 = molecular target: T4, PD-1-his(ACRO)重组蛋白 (UniProt Q15116 25-167); assay: BLI (ForteBio Octet QKe), PD-1-his loaded on HIS1K sensor, antibody in solution
T4 construct: Bought (ACRO); not shown: his tag
T4 sequence (Q15116 25-167 limits assumed): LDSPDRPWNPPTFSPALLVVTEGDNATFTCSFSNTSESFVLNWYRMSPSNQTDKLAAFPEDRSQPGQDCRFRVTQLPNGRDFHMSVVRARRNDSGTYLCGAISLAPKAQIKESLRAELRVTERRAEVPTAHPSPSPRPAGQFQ

CD28 (ACRO) coated on the ELISA plate, sequence (P10747 19-152 limits assumed): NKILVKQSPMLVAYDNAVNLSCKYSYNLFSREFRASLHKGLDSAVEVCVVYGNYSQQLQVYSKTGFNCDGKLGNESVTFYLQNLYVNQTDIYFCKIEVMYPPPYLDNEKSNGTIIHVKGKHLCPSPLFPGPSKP

- binding result [1]: no binding (tested: 10μg/ml)
- binding result [2]: no binding (tested: 10μg/ml)
- binding result [3]: no binding (tested: 10μg/ml)
- binding result [4]: no binding (tested: 初始浓度为10μg/ml)
- Kd (PD-1-his(ACRO)重组蛋白): < 1 pM
- koff (PD-1-his(ACRO)重组蛋白): < 1e-07 s⁻¹
- kon (PD-1-his(ACRO)重组蛋白): 771000 M⁻¹ s⁻¹
B1: 抗PD-1鼠单抗PD-1-76-C2 (antibody, V domains shown)
VH: QIQLVQSGPELKKPGETVKISCKASGYTFTNYGMNWVKQAPGKGLKWMGWINTHTGEPTYADDFKGRFAFSLETSASTAYLQIKNLKNEDVATYFCTKEGEGIGFAYWGQGTLVTVSA
VL: DVLMTQTPLSLPVSLGDQASISCRSSQSIVYSNGKTYLEWYLQKPGQSPKLLIYKVSNRFSGVPDRFSGSGSGTDFTLKISRVEAEDLGVYYCFQGSHVPNTFGGGTKLEIKR
notes: Mouse monoclonal antibody from a hybridoma; an mIgG1 isotype control was used; also called PD-76-C2; 抗人PD-1鼠单抗
